One block for each binder: values may come before it.
What was measured:
GST-CDF2 = target: T1, GST-CDF2 (Arabidopsis, UniProt Q93ZL5 1-457); assay: pull-down; GST pull-down: GST-CDF2 (or GST) on glutathione beads, MBP-DCL1-RBD added; 40 mM HEPES-KOH pH 7.5, 10 mM KCl, 3 mM MgCl2, 0.4 M sucrose, 1 mM EDTA, 1 mM DTT, 0.2% Triton X-100; 4 C, 1 h; immunoblot; conditions: both partners purified
T1 construct: cycling DOF factor 2 (CDF2), Arabidopsis
T1 sequence (looked up): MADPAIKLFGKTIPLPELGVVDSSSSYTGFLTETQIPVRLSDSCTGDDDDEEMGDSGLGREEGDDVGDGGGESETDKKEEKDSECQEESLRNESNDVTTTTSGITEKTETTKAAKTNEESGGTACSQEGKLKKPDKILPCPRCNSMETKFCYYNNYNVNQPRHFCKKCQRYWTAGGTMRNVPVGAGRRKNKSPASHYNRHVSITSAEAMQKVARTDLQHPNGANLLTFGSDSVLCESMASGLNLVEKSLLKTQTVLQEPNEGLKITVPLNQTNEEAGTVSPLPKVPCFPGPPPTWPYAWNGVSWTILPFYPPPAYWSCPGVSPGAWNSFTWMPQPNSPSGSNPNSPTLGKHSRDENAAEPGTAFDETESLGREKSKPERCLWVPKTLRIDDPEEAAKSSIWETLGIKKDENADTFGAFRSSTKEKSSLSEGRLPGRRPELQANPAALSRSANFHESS

MBP-CDF2 = target: T2, MBP-CDF2 (Arabidopsis, UniProt Q93ZL5 1-457); assay: pull-down; MBP pull-down: MBP-CDF2 (or MBP) on amylose resin, GST-DCL1-RBD added; 40 mM HEPES-KOH pH 7.5, 10 mM KCl, 3 mM MgCl2, 0.4 M sucrose, 1 mM EDTA, 1 mM DTT, 0.2% Triton X-100; 4 C, 1 h; immunoblot; conditions: both partners purified
T2 construct: cycling DOF factor 2 (CDF2), Arabidopsis; source: E. coli BL21 (DE3), purified (New England Biolabs protocol)
T2 sequence (looked up): T1 sequence (looked up)

binding result (GST-CDF2): binds
B1: MBP-DCL1-RBD (domain or fragment, Arabidopsis, UniProt Q9SP32 1733-1909, looked up)
chain: HPVRELQERCQQQAEGLEYKASRSGNTATVEVFIDGVQVGVAQNPQKKMAQKLAARNALAALKEKEIAESKEKHINNGNAGEDQGENENGNKKNGHQPFTRQTLNDICLRKNWPMPSYRCVKEGGPAHAKRFTFGVRVNTSDRGWTDECIGEPMPSVKKAKDSAAVLLLELLNKTFS
notes: Dicer-like 1 (DCL1), Arabidopsis, the two C-terminal dsRBDs (DCL1-RBD, defined as aa 1733-1910); The limits are those printed where the name DCL1-RBD is defined; the methods of the pull-down give none; source: E. coli BL21 (DE3), purified (New England Biolabs protocol)

binding result (MBP-CDF2): binds
B2: GST-DCL1-RBD (domain or fragment, Arabidopsis, UniProt Q9SP32 1733-1909, looked up)
chain: B1 chain
notes: Dicer-like 1 (DCL1), Arabidopsis, the two C-terminal dsRBDs (DCL1-RBD, defined as aa 1733-1910); The limits are those printed where the name DCL1-RBD is defined; the methods of the pull-down give none

Reference: paper PMC4608766, “The Roles of Arabidopsis CDF2 in Transcriptional and Posttranscriptional Regulation of Primary MicroRNAs” (PLoS Genetics, 2015)
